B1: chimeric 142F7 antibody (antibody, human IgG2, kappa, V domains shown)
VH: EVQLEQSGAELVRPGTSVKVSCKASGYAFTNYLIEWGIQRPGQGLEWIGVINPGTGGTNYNEKFKDKATLTTDKSSSTAYMQLSSLTSDDSAVYFCARGGSGFAYWGQGTLVTVSA
VL: DIVLTQTTSSLSASLGDRVTISCRASQDINNYLNWYQQKPDGTVKLLIYYTSRLHSGVPSRFSGSGSGTDYSLTISNLEQEDIATYFCQQGNTLPWTFGGGTKLEIKR
notes: Mouse variable regions with human IgG2/kappa constant regions
B2: chimeric 92F6 antibody (antibody, human IgG2, kappa, V domains shown)
VH: QVQLEQSGAEVVKPGASVKVSCTASGFNIKDTYMHWVKQRPEQGLEWIGRIDPANGNTNYDPKFQGKATITADTSSNTGYLQLSSLTSEDTAVYYCSRWGYDWYFDVWGAGTSVTVSS
VL: DIVITQSTAIMSASPGEKVTITCSASSSVSYIHWFQQKPGTSPKLWIYTTANLASGVPARFSGSGSGTSYSLTISRMEAEDAATYYCQQRSNYPFTFGSGTKLEIKR
notes: as for B1
B3: chimeric 77D9 antibody (antibody, human IgG2, kappa, V domains shown)
VH: QVKLEESGGGLVKPGGSLKLSCAASGFTFRNYAMSWVRQSPGERLEWVAEVSGSGYYTYYPDTVTGRFTISRDNANNTLYLEVSSLRSEDTAMYYCTSRAYWGQGTLVTVSA
VL: IVMTQSPTLSLPVSLGDQASISCRSSQSIVLTNGNTYLEWYLQRPGQSPKLLIYKVSNRFSGVPDRFSGSGSGTDFTLKISRVEAEDLGVYYCFQGSHVPYTFGGGTKLEIKR
notes: as for B1
B4: chimeric 7B4 antibody (antibody, human IgG2, kappa, V domains shown)
VH: EVQLQESGPGLVKPSQSLSLTCSVTGYSITTNYYWNWIRQFPGNKLEWMGYIKYDGSNNYNPSLKNRISITRDTSKNQFFLKLNSVTTEDTATYYCARLDYWGQGTSVTVSS
VL: DIVLTQSPLSLPVSLGDQASISCRSSQSLENSNGNTFLNWFLQKPGQSPQLLIYKVSNRFSGVLDRFSGTGSGTDFTLTISRVEAEDLGVYFCLQVTHVPFTFGSGTKLEIKR
notes: as for B1
B5: chimeric 16A6 antibody (antibody, human IgG2, kappa, V domains shown)
VH: B4 VH with Q5E, E6Q, Y34H
VL: B4 VL with P8T, P12S, F76L
notes: as for B1
B6: chimeric 50F6 antibody (antibody, human IgG2, kappa, V domains shown)
VH: QVQLEQSGDDLVKPGASVKLSCKASGYTFTTYWINWIKQRPGQGLEWIGRISPGSGSTHYNEMFKGKATLTVDTSSSTAYIQLSSLSSEDSAVYFCTRNDYWGQGTTLTVSS
VL: DIVLTQSPLSLPVSLGDQASISCRSSQSIVNSNGNTYLEWYLQKPGQSPKLLIYKVSNRFSGVPDRFSGSGSGTDFTLKISRVEAEDLGVYYCFQGSHVPLTFGAGTKLELKR
notes: as for B1
B7: chimeric 29A10 antibody (antibody, human IgG2, kappa, V domains shown)
VH: QVKLEQSGGGLVKPGGSLKLSCAASGFTFSHYYMYWVRQTPEKRLEWVATISDAGSYTYYSDSVKGRFTISRDNAKNNLYLQMSSLKSDDTAMYFCARTYYRGDGGYWFFDVWGAGTAVTVSS
VL: DIVITQSTSSLAVSVGEKVTMSCESSQSLLYSSNQKNYLAWYQQKPGQSPKLLIYWASTRESGVPDRFTASGSGTDFTLTISSVKAEDLAVYYCQQYYRSPLTFGAGTKLELKR
notes: as for B1
B8: 13A2-VH2VL2 (antibody, human IgG2, kappa, V domains shown)
VH: QVQLQESGPGLVKPSDTLSLTCAVSGYSITTNYYWNWIRQPPGKGLEWMGYINYDGSNNYNPSLKNRITISVDTSKNQFSLKLSSVTAVDTAVYYCARLDYWGQGTLVTVSS
VL: DVVLTQSPLSLPVTLGQPASISCRSSQSLENSNGNTFLNWFQQRPGQSPRLLIYKVSNRFSGVPDRFSGSGSGTDFTLKISRVEAEDVGVYYCLQVTHVPFTFGQGTKLEIKR
notes: Humanized, human IgG2/kappa
B9: 7B4-VH3VL2 (antibody, human IgG2, V domains shown)
VH: B8 VH with K44N, G45K, N53K
VL: B8 VL
notes: Humanized, human IgG2/kappa
B10: 7B4-VH2VL3 (antibody, human IgG2, kappa, V domains shown)
VH: B8 VH with N53K
VL: B8 VL with Y92F, Q105S
notes: Humanized, human IgG2/kappa
B11: 7B4-VH0VL0 (antibody, human IgG2, kappa, V domains shown)
VH: B8 VH with M49I, N53K, I68V, I70M
VL: B8 VL with L4M, L51R
notes: Humanized, human IgG2/kappa
B12: 13A2-VH0VL0 (antibody, human IgG2, kappa, V domains shown)
VH: B8 VH with M49I, I68V, I70M
VL: B8 VL with L4M, L51R
notes: Humanized, human IgG2/kappa
B13: 13A2-VH2VL3 (antibody, human IgG2, kappa, V domains shown)
VH: B8 VH
VL: B8 VL with Y92F, Q105S
notes: Humanized, human IgG2/kappa
B14: 7B4-VH3VL3 (antibody, human IgG2, V domains shown)
VH: B8 VH with K44N, G45K, N53K
VL: B8 VL with Y92F, Q105S
notes: Humanized, human IgG2/kappa

Numbering of substitutions follows the chain as printed.

Here are results for 14 molecules from patent publication US10654939 (BEIJING MABWORKS BIOTECH, dated 2020).

T1 sequence (P27512 20-289 limits assumed): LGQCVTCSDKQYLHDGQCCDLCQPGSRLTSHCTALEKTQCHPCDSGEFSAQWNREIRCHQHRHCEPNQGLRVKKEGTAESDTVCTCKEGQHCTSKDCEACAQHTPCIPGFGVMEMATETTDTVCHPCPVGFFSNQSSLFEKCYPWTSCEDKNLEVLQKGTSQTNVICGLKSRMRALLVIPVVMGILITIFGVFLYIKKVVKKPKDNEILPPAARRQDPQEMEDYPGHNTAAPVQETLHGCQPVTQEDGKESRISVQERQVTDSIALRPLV
T2 sequence (P25942 21-193): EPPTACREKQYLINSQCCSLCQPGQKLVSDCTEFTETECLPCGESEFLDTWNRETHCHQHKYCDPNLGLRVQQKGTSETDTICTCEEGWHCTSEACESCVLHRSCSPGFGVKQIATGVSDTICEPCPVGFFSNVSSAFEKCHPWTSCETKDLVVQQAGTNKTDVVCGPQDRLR

One experiment addresses T1, mouse CD40 expressed on HEK293A cells (mouse, UniProt P27512 20-289).
T1 construct: also called HEK293A/mouseCD40
Nature of the experiment: FACS, HEK293A/mouseCD40 cells.
Turning to B1, the binding result is on record as “no binding”.
For the molecule B2, the binding result is on record as “no binding”.
B3: the binding result is recorded as “no binding”.
On the same count and under the same terms, then B4, with “no binding”; and B5, with “no binding”; and B6, with “no binding”.
The same measure, in the same setting: in the case of B7 it was “no binding”.

The next experiment has as its target T2, recombinant human CD40 (ECD)-his (human, UniProt P25942 21-193).
T2 construct: Bought protein; also called hCD40(ECD)-his; TNFRSF5
Nature of the experiment: SPR (Biacore 8K), hCD40(ECD)-his coupled to chip, antibody injected. How it is done: SPR assays were used to determine the binding affinity of the chimetic or humanized anti-CD40 antibodies to human CD40 with the BIAcore™ 8K instrument (GE Life Sciences). Briefly, 100-200 response units (RU) of human CD40 (ECD)-his protein (Sino Biological, CN, Cat #: 10774-H08H) were coupled to CM5 biosensor chips (Cat #: BR-1005-30, GE Life Sciences), followed by blocking of un-reacted groups with 1M ethanolamine. Serially diluted antibodies at concentrations ranging from […] were injected into the SPR running buffer (HBS-EP buffer, pH7.4, GE Life Sciences; US; Cat #: BR-1006-69) at 30 μL/minute. The binding capacity was calculated with the RUs of blank controls subtracted. The association rate (k_a) and dissociation rate (k_d) were calculated using the one-to-one Langmuir binding model (BIA Evaluation Software, GE Life Sciences). The equilibrium dissociation constant K_D was calculated as the k_d/k_a ratio.
Background: Surface plasmon resonance follows binding to a sensor surface in real time, without labels.
In the case of B8, the Kd (in general, the equilibrium constant for the complex coming apart) was 2.08 nM; the koff (commonly the first-order rate constant of dissociation) came to 0.00171 s⁻¹; the on-rate (kon) (in general, a measure of how fast the partners come together) was found to be 823000 M⁻¹ s⁻¹.
For B9 the same measures were 4.2 nM, 0.00615 s⁻¹ and 1.46e+06 M⁻¹ s⁻¹.
Regarding B10, the Kd came to 3.6 nM, the koff was 0.00639 s⁻¹ and the association rate constant (kon) is 1.78e+06 M⁻¹ s⁻¹.
On to B11, for which the Kd was 2.47 nM, the off-rate (koff) stood at 0.0068 s⁻¹ and the on-rate constant (kon) amounted to 2.75e+06 M⁻¹ s⁻¹.
For B12, in that order: 28.8 nM, 0.0114 s⁻¹ and 396000 M⁻¹ s⁻¹.
For B13 the same measures were 3.55 nM, 0.00261 s⁻¹ and 735000 M⁻¹ s⁻¹.
For B14, in that order: 2.99 nM, 0.00488 s⁻¹ and 2.13e+06 M⁻¹ s⁻¹.
For B4, the Kd turned out to be 3.6 nM, the koff turned out to be 0.0036 s⁻¹ and the kon was determined as 1e+06 M⁻¹ s⁻¹.

The next experiment has as its target T3, rhesus CD40 expressed on HEK293A cells (rhesus monkey, UniProt P25942 21-277 (human entry)).
T3 construct: also called HEK293A/rhesusCD40
T3 chain: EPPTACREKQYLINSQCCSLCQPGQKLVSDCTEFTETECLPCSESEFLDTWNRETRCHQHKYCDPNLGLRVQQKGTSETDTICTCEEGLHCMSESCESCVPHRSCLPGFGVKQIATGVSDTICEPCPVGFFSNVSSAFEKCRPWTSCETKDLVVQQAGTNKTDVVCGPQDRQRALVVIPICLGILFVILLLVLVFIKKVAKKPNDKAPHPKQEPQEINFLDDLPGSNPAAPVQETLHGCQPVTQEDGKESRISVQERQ
Nature of the experiment: FACS on HEK293A/rhesus CD40 cells, serially diluted antibody (Example 14, protocol of Example 5). How it is done:
Example 5 Mouse Anti-CD40 Monoclonal Antibodies Bound to Human and Rhesus CD40 Expressed on HEK293A Cells To further determine whether anti-CD40 antibodies bound to human, monkey or mouse CD40 expressed on HEK293A cells, a cell-based binding assay by FACS was performed using the HEK293A cells stably overexpressing human, monkey or mouse CD40 as generated in Example 1, respectively. Briefly, 10^5 HEK293A cells were seeded into each well of the 96-well plates and serially diluted anti-CD40 antibodies were added to the plates. After incubated at 4° C. for 1 hour, plates were washed 3 times with PBST. Then, an APC coupled Goat Anti-Mouse IgG (BioLegen, US, Cat #: 405308) diluted 500× was added to the plates. After incubation at 4° C. for 1 hour, the plates were washed with PBS for 3 times and then cell fluorescence was monitored using a FACS machine (BD).
The chimeric and humanized anti-CD40 antibodies were further characterized for their ability of binding to HEK293A/humanCD40 cells and HEK293A/rhesus CD40 cells, following the protocols described in Example 5. They were also tested for their ability to activate CD40 signaling in HEK-Blue assay, and to promote dendritic cell maturation, following the protocols in Example 7 and Example 9, respectively, the dendritic cells collected form three healthy human donors. IL-12(p40) secretion by the dendritic cells was measured by using human IL12(p40) ELISA kit (BD, US, Cat #: 551116) following themanufactor's instruction.
Turning to B8, the binding result is “binds”.
Turning to B9, the EC50 (read off the curve) (usually the midpoint of the concentration-response curve) is about 0.2 µg/mL.
Take B10: the concentration for a half-maximal effect (EC50 (read off the curve)) is about 0.2 µg/mL.
Regarding B11, the “EC50 (read off the curve)” value was about 0.2 µg/mL.
For the molecule B12, the binding result was “binds”.
With B13, the binding result was “binds”.
For B14, the “EC50 (read off the curve)” value is about 0.2 µg/mL.
